Experimental findings from publication PMC11909244, “Rice transcription factor bHLH25 confers resistance to multiple diseases by sensing H2O2” are described below.

In data set [1] the target is T1, bHLH25 (Oryza sativa (Nipponbare), UniProt Q5SMX4 1-439). Put plainly: EMSA; 10 mM Tris-HCl pH 7.5, 50 mM KCl, 50 ng/mL poly(dI-dC), 1 mM DTT, ~0.5 ug GST protein in 10 uL, 0.5 uM pmiR397b-G-box or 0.1 uM pCPS2-N-box biotin probe; temperature not stated. Conditions: protein: recombinant; tags: GST-SUMO (pGEX-6p-1-SUMO); chain copies: 2; label: 5' biotin.
T1 sequence (Q5SMX4 entry or part of it): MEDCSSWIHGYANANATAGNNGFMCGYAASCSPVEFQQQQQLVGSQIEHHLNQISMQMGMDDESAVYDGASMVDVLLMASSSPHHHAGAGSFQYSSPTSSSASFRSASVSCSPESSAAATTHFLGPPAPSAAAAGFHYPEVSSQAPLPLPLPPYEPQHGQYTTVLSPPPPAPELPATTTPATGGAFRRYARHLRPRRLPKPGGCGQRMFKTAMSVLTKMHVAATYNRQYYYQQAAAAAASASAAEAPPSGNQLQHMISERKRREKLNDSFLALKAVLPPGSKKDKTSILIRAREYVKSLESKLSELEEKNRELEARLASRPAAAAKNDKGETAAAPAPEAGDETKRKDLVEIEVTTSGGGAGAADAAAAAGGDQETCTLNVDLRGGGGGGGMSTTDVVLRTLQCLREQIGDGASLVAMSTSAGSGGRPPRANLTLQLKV
The target of the next data set is bHLH25 M256V (Oryza sativa (Nipponbare), UniProt Q5SMX4 1-439, M256V). The data set is described as above. Conditions: protein: recombinant; tags: GST-SUMO; chain copies: 2; label: 5' biotin.
bHLH25 M256V, sequence (Q5SMX4 entry or part of it M256V | M256V M256V): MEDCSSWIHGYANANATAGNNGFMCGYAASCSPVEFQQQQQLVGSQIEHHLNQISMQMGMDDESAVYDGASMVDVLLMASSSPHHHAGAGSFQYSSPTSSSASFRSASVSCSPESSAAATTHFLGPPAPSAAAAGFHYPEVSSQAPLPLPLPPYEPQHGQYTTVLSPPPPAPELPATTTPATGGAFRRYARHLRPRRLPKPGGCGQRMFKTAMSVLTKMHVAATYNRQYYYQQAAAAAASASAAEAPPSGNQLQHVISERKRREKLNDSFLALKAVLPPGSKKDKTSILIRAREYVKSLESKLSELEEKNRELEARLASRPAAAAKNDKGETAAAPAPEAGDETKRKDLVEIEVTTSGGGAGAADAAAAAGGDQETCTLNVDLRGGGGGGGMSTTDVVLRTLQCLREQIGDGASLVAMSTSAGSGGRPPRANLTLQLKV
For data set [2], the target named is T1, bHLH25. The data set can be described thus: competition; unlabeled competitor of N1; 10 mM Tris-HCl pH 7.5, 50 mM KCl, 50 ng/mL poly(dI-dC), 1 mM DTT, ~0.5 ug GST protein in 10 uL, 0.5 uM pmiR397b-G-box or 0.1 uM pCPS2-N-box biotin probe; temperature not stated. Conditions: protein: recombinant; tags: GST-SUMO (pGEX-6p-1-SUMO); chain copies: 2.

B1: bio-pmiR397b-G-box (dsDNA)
DNA 1: GTACTTTGTCACGTCCTGATCGAT
DNA 2: ATCGATCAGGACGTGACAAAGTAC
For B1, the binding result with bHLH25 [1] is reported as “binds”; with bHLH25 M256V, “no binding”.

B2: com-pmiR397b-G-box (dsDNA)
DNA 1: GTACTTTGTCACGTCCTGATCGAT
DNA 2: ATCGATCAGGACGTGACAAAGTAC
For B2, the binding result with bHLH25 [2] was “binds”.

B3: bio-pCPS2-N-box (dsDNA)
DNA 1: TTTCACAATCACGAGCTAGACTAA
DNA 2: TTAGTCTAGCTCGTGATTGTGAAA
For B3, the binding result was “binds” in the data set with bHLH25 [1] and “no binding” with bHLH25 M256V.
